Consider 49 molecules from patent US20200000897A1 (published 2020).

Sequences and labels used below:
B1: SSFRPLLSK (peptide)
peptide: SSFRPLLSK
B2: KCYEVGMMK (peptide)
peptide: KCYEVGMMK
B3: SLYDSEPRKK (peptide)
peptide: SLYDSEPRKK
B4: TTYYPSPLNK (peptide)
peptide: TTYYPSPLNK
B5: EVILTTKTPK (peptide)
peptide: EVILTTKTPK
B6: RLPLRVVKH (peptide)
peptide: RLPLRVVKH
B7: ALNDRFAGY (peptide)
peptide: ALNDRFAGY
B8: QIRAELMKK (peptide)
peptide: QIRAELMKK
B9: QLGYQAAVLK (peptide)
peptide: QLGYQAAVLK
B10: LLDAEPPILY (peptide)
peptide: LLDAEPPILY
B11: VTADGALAMEK (peptide)
peptide: VTADGALAMEK
B12: RVCMTVDSLVNK (peptide)
peptide: RVCMTVDSLVNK
B13: RVLYRPQLEK (peptide)
peptide: RVLYRPQLEK
B14: RLSAESKDLLK (peptide)
peptide: RLSAESKDLLK
B15: RLVELAGQSLLK (peptide)
peptide: RLVELAGQSLLK
B16: HAFFPKTHR (peptide)
peptide: HAFFPKTHR
B17: AVAQKLLSH (peptide)
peptide: AVAQKLLSH
B18: ILDSSLLK (peptide)
peptide: ILDSSLLK
B19: SLFPYYNNLY (peptide)
peptide: SLFPYYNNLY
B20: GIFPKIMPK (peptide)
peptide: GIFPKIMPK
B21: LLYGNGPGYVLK (peptide)
peptide: LLYGNGPGYVLK
B22: AIGTPLIGK (peptide)
peptide: AIGTPLIGK
B23: KTWAHCMSY (peptide)
peptide: KTWAHCMSY
B24: VLLLLSLLH (peptide)
peptide: VLLLLSLLH
B25: RLGAARGQLR (peptide)
peptide: RLGAARGQLR
B26: KLLEDMVEK (peptide)
peptide: KLLEDMVEK
B27: SGSTLECILYK (peptide)
peptide: SGSTLECILYK
B28: VLYRPQLEK (peptide)
peptide: VLYRPQLEK
B29: RLSPGPRAY (peptide)
peptide: RLSPGPRAY
B30: TMWQIPQEFVK (peptide)
peptide: TMWQIPQEFVK
B31: FSNNHPSTPK (peptide)
peptide: FSNNHPSTPK
B32: GVTITKTLK (peptide)
peptide: GVTITKTLK
B33: AVCGGVLVH (peptide)
peptide: AVCGGVLVH
B34: KVLSILSRLK (peptide)
peptide: KVLSILSRLK
B35: KQALSLVRK (peptide)
peptide: KQALSLVRK
B36: VVTGNVPLK (peptide)
peptide: VVTGNVPLK
B37: KTQFPQLK (peptide)
peptide: KTQFPQLK
B38: VVFPFPVNKR (peptide)
peptide: VVFPFPVNKR
B39: HSAGIFSMY (peptide)
peptide: HSAGIFSMY
B40: HAFPPGPNY (peptide)
peptide: HAFPPGPNY
B41: KGWNGQIFK (peptide)
peptide: KGWNGQIFK
B42: SIFGLAPGK (peptide)
peptide: SIFGLAPGK
B43: KINQYIIKK (peptide)
peptide: KINQYIIKK
B44: ITAPLMPLGK (peptide)
peptide: ITAPLMPLGK
B45: STLECILYK (peptide)
peptide: STLECILYK
B46: ALFGNALVFY (peptide)
peptide: ALFGNALVFY
B47: GMYEYGSIEK (peptide)
peptide: GMYEYGSIEK
B48: KLETGVVKK (peptide)
peptide: KLETGVVKK
B49: TVYDSIWCNMK (peptide)
peptide: TVYDSIWCNMK

Where only a bound is given, the exact number is not on record here.

The experiment deals with T1, HLA-A*03:01 (human).
T1 construct: MHC class I monomer first loaded with a UV-sensitive peptide that is cleaved by UV irradiation and exchanged for the test peptide; captured on streptavidin plates; also called peptide-receptive MHC molecules
Nature of the experiment: UV-ligand exchange, anti-b2m ELISA; peptide exchange yield grade (>10% +, >20% ++, >50% +++, >75% ++++). From the text:
Candidate peptides for T cell based therapies according to the present invention were further tested for their MHC binding capacity (affinity). The individual peptide-MHC complexes were produced by UV-ligand exchange, where a UV-sensitive peptide is cleaved upon UV-irradiation and exchanged with the peptide of interest as analyzed. Only peptide candidates that can effectively bind and stabilize the peptide-receptive MHC molecules prevent dissociation of the MHC complexes. To determine the yield of the exchange reaction, an ELISA was performed based on the detection of the light chain (β2m) of stabilized MHC complexes. The assay was performed as generally described in Rodenko et al. (Rodenko et al., 2006)
96 well MAXISorp plates (NUNC) were coated over night with 2 ug/ml streptavidin in PBS at room temperature, washed 4× and blocked forl h at 37° C. in 2% BSA containing blocking buffer. Refolded HLA-A*02:01/MLA-001 monomers served as standards, covering the range of 15-500 ng/ml. Peptide-MHC monomers of the UV-exchange reaction were diluted 100-fold in blocking buffer. Samples were incubated for 1 h at 37° C., washed four times, incubated with 2 ug/ml HRP conjugated anti-β2m for 1 h at 37° C., washed again and detected with TMB solution that is stopped with […]. Absorption was measured at 450 nm.
A general note: ELISA stands for enzyme-linked immunosorbent assay.
As to B1, the peptide exchange yield is above 75%.

B2 displayed a peptide exchange yield above 75%.

Regarding B3, the peptide exchange yield is above 75%.

B4 registered a peptide exchange yield of 50 to 75%.

For the molecule B5, the peptide exchange yield fell in the range of 20 to 50%.

As for B6, the peptide exchange yield is above 75%.

The molecule B7 showed a peptide exchange yield of 50 to 75%.

As for B8, the peptide exchange yield is above 75%.

Consider B9, for which the peptide exchange yield is 50 to 75%.

In turn, B10 had a peptide exchange yield of 10 to 20%.

B11 returned a peptide exchange yield of 50 to 75%.

Take B12: the peptide exchange yield is above 75%.

Turning to B13, the peptide exchange yield was in the range of 50 to 75%.

Regarding B14, the peptide exchange yield lay in the range of 50 to 75%.

For the molecule B15, the peptide exchange yield was above 75%.

Take B16: the peptide exchange yield is above 75%.

The molecule B17 displayed a peptide exchange yield above 75%.

With B18, the peptide exchange yield fell in the range of 20 to 50%.

In turn, B19 yielded a peptide exchange yield of 10 to 20%.

The molecule B20 showed a peptide exchange yield above 75%.

For B21, the peptide exchange yield is above 75%.

On to B22, for which the peptide exchange yield fell in the range of 50 to 75%.

Molecule B23 yielded a peptide exchange yield above 75%.

In the case of B24, the peptide exchange yield was in the range of 20 to 50%.

Molecule B25 showed a peptide exchange yield of 20 to 50%.

Molecule B26 showed a peptide exchange yield of 20 to 50%.

Take B27: the peptide exchange yield is above 75%.

In turn, B28 had a peptide exchange yield above 75%.

Turning to B29, the peptide exchange yield lay within 50 to 75%.

With B30, the peptide exchange yield is above 75%.

B31: the peptide exchange yield was 50 to 75%.

B32 came in with a peptide exchange yield of 50 to 75%.

The molecule B33 came in with a peptide exchange yield above 75%.

B34 returned a peptide exchange yield of 50 to 75%.

On to B35, for which the peptide exchange yield was in the range of 50 to 75%.

B36 showed a peptide exchange yield of 50 to 75%.

As to B37, the peptide exchange yield was in the range of 20 to 50%.

On to B38, for which the peptide exchange yield lay within 50 to 75%.

The molecule B39 showed a peptide exchange yield of 20 to 50%.

On to B40, for which the peptide exchange yield was in the range of 10 to 20%.

In turn, B41 showed a peptide exchange yield of 50 to 75%.

B42 came in with a peptide exchange yield above 75%.

B43: the peptide exchange yield lay in the range of 50 to 75%.

Regarding B44, the peptide exchange yield is above 75%.

B45 showed a peptide exchange yield above 75%.

B46 came in with a peptide exchange yield above 75%.

In turn, B47 returned a peptide exchange yield above 75%.

Turning to B48, the peptide exchange yield was above 75%.

B49 yielded a peptide exchange yield above 75%.
